In patent publication US20240279288A1, “APPLICATION OF PLANT JAZ PROTEINS AND DERIVED POLYPEPTIDES IN PREVENTION AND TREATMENT OF HUMAN AND ANIMAL TUMORS” (ANYANG INSTITUTE OF SINO-COTTON INDUSTRY INNOVATION, priority 2021, published 2024):

Tests used:
c-Myc-150aa = biological target: T1, c-Myc-150aa (Homo sapiens, UniProt P01106); experiment: Yeast two hybrid and LUC with c-Myc truncated to first 150 amino acids; type: binding
T1 construct: expressed in transfected cells
Description: […]

[1] = test system: Human ovarian cancer cells SKOV3 tumor; experiment: Ovarian cancer mouse model in vivo, intratumoral injection; set-up: species or system nude mice; conditions: 5 mg/kg intratumoral injection every 2 days, 7 times
Experimental: Human ovarian cancer cells SKOV3 were cultured. Cells were digested by the trypsin before being used for tumor bearing. Cells were washed twice with PBS, followed by resuspending with PBS to a concentration of 1×10^8/mL. The cell suspension was subcutaneously injected into the axilla of nude mice, with an inoculation dose of 0.2 mL per nude mouse. After inoculation, nude mice were randomly assigned into two groups, which were PBS group and GhJAZ1 protein (5 mg/kg) treated group, respectively, with 8 mice in each group. After tumor inoculation, administration began when the tumor volume reached to about 50-100 mm^3. Administration by intratumoral injection was conducted every 2 days for a cycle of 14 days, in total of 7 times. Throughout the entire experiment, the body weight of nude mice was monitored while administration, and tumor size was measured using a vernier caliper according on the formula V=½×length×width×width, to calculate the tumor volume, and plot tumor growth curve. 14 days later, the tumor was removed, took images and weighted.

GhHDA6 = experiment: CO-IP experiment with GhHDA6; type: binding, cotton
Experimental: Steps of method of CO-IP experiment: Non-denaturing lysate was added to 293T cell culture plate (Pricella, Cat. No.: CL-0005), and the cells were completely lysed at 4° C. The lysate was centrifuged at 12,000 rpm for 10 min and the supernatant was collected. The corresponding antibody was added to the obtained non-denatured protein solution, which was incubated overnight at 4° C. Pierce™ protein A/G magnetic agarose (Thermo Fisher Scientific, Inc.) were washed with lysis buffer, followed by addition pre-treated beads to the cell lysate, and incubation at room temperature for 2 hours. The mixture was centrifuged at 4° C., 2,500 rpm for 5 min with supernatant removed, and the agarose beads were washed 5 times with 1 ml of lysis buffer. An appropriate amount of protein loading buffer was added to the pellet, and the sample was incubated in water bath at 100° C. for 10 min. The band of interest was detected by Western blotting.

T1 sequence (P01106 1-150): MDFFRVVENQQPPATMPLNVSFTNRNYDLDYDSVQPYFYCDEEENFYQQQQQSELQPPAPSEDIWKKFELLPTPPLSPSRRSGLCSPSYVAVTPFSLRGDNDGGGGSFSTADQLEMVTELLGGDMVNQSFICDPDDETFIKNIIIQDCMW
Sequence of GhHDA6 (as listed by the source): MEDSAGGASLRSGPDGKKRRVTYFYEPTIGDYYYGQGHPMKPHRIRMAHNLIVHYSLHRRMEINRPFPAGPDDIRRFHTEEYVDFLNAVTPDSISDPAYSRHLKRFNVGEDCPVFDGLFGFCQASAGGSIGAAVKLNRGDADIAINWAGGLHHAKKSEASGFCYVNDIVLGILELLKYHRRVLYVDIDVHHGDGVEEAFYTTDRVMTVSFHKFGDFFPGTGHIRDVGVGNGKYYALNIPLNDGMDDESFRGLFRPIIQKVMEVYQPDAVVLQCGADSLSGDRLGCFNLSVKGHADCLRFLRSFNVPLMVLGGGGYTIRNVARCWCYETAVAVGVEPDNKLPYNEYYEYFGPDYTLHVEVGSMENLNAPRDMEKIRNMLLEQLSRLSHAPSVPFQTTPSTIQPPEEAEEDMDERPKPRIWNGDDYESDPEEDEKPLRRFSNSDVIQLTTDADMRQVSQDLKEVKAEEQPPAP

B1: GhJAZ1: cotton JAZ1 protein, gene number Gh_A05G0260, sequence SEQ ID No. 4; prokaryotically expressed with His tag, about 30 KD (protein)
chain: MSSCSESTAMKPARSPEKPSFAQTCNLLSQYLKEKGSFGDLSLGMTCNVEANGTPVVPPPTMNLFPLNDKSDDVCGRNGGNPKNLTSMDLFPQQAGLASKDDSPNKLEPQTAPMTIFYGGQVIVFNDFPANKAKEIMLLASNSSSQSNNSFNPIPFTSSIARSPIESSIGVPPTSKPVHPAQRAVPGDLPIARRASLHRFLEKRKDRITAKAPYQINNSAAAPSLSGDNKSWLGLAAQSP
modifications: His tag
notes: prokaryotically expressed with His tag, about 30 KD
B1 was tested, and the “interaction with first 150 amino acids truncated c-Myc” value (c-Myc-150aa) was “strong interactions”, the “volume of tumors vs control group” value ([1]; SKOV3 in nude mice) was “highly significantly lower” and the “weight of tumors vs control group” value ([1]; tumors removed after 14 days) was “highly significantly lower”. For the same molecule, the “interaction with GhHDA6” value (GhHDA6) was “interacts”.
